# Measured values from US20260049134A1 (UNIVERSITY OF FLORIDA RESEARCH FOUNDATION, published 2026).
# Residue numbers refer to the chain shown, from its start. In names and notes the source's numbering stands.
# T1: GARS, endogenous in H929 multiple myeloma cells (human, UniProt P41250 37-739, limits assumed)
# T1 construct: Native protein pulled down from H929 lysates; also called Glycyl-tRNA synthetase; GlyRS
# T1 sequence: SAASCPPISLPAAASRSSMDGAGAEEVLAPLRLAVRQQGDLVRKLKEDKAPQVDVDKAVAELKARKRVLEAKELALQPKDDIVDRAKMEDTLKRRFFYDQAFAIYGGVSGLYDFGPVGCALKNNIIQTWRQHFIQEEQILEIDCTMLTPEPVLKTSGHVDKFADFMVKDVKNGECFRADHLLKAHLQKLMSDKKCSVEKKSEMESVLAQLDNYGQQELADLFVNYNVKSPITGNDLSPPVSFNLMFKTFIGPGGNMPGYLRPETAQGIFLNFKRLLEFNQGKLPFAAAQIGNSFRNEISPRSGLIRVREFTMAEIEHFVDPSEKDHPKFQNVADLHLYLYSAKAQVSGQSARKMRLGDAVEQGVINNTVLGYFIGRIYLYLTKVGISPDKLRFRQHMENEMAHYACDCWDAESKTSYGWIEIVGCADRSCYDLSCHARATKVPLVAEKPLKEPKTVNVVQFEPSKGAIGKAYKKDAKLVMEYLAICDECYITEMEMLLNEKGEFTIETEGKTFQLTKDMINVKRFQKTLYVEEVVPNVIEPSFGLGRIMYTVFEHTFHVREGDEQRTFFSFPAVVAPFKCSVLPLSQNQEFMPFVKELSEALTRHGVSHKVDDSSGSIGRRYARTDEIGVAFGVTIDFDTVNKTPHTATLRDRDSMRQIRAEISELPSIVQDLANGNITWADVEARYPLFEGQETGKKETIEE
# T2: ANXA1
# T2 construct: coated protein in the ELISA; also called ANXA1-His (R&D Systems)
# T2 chain: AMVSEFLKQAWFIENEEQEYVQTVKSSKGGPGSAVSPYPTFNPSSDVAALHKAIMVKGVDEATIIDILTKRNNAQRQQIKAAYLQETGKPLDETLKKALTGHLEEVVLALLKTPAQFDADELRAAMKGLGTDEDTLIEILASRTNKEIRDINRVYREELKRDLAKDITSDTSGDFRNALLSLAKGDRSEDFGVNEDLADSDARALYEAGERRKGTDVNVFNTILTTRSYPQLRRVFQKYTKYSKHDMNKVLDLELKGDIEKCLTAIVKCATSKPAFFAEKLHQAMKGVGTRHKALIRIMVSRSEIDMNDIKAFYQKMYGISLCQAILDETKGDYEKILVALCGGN
# T3: SELL (L-Selectin)
# T3 construct: coated protein in the ELISA; also called SELL-Fc-His (R&D Systems)
# T3 chain: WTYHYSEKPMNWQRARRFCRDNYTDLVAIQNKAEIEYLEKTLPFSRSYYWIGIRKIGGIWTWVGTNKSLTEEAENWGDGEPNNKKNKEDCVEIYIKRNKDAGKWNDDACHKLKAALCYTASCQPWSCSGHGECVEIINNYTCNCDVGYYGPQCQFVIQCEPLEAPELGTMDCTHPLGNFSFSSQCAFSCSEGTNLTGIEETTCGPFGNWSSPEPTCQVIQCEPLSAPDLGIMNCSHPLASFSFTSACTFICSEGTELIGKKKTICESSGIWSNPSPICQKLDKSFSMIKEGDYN
# T4: IGSF11 (VSIG3)
# T4 construct: coated protein in the ELISA; also called IGSF11-Fc (R&D Systems)
# T4 chain: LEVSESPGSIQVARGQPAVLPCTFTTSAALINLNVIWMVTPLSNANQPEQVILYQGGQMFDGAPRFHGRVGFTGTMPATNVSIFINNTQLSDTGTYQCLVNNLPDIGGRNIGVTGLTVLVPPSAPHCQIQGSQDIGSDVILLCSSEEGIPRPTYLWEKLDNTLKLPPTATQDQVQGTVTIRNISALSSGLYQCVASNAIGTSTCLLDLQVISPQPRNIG
# B1: HW-81 chimeric rabbit-human IgG1 LA/LA/PG (antibody, V domains shown)
# VH: QKQLVESGGGLVTPGGTLTLTCTVSGFSLSSNGVSWVRQAPGKGLEYIGLIRSIGSTYYATWAKGRFTISKTSTTVDLKITSPTTEDTATYFCARGGYRNGFKLWGPGTLVTVSS
# VL: QPVLTQSPSVSAALGASAKLTCTLSSAHKTYYIEWYQQQHPGKAPRYLMQLQSDGSYTKGTGVPDRFSGSSSGADRYLIISSVQAEDEADYICGVIDSAVYVFGGGTQLTVTG
# notes: Fc-silenced (L234A/L235A/P329G) IgG1, lambda; Alexa Fluor 647-labeled in single-step flow cytometry; Cluster C-45
# B2: HW-25 chimeric rabbit-human IgG1 LA/LA/PG (antibody, V domains shown)
# VH: QSLEESGGRLVTPGTPLTLTCTVSGFSLSSYAMGWVRQAPGKGLEWIGIIDSRGSTYYATWAKGRFTISKTSTTVDLKITSPTTEDTATYFCAREDSYYYDSFNLWGPGTLVTVSS
# VL: SFVLTQPASVQVNLGQTVSLTCTADTLSRRYASWYQQKPGQAPVLLIYRDTSRPSGVPDRFSGSSSGNTATLTISGAQAGDEADYYCATSDGSGSSYQCVFGGGTQLTVTG
# notes: Fc-silenced (L234A/L235A/P329G) IgG1, lambda; Alexa Fluor 647-labeled in single-step flow cytometry; Cluster C-1
# B3: HW-56 chimeric rabbit-human IgG1 LA/LA/PG (antibody, V domains shown)
# VH: QSVKESEGGLFKPTDTLTLTCTASGFTVSTNAVTWVRQAPGNGLEYIGTIGRSGSAYFASWAKRRSTLTRDINLNTVTLKMTSLTAADTATYFCVRGSPGYRTAISIWGPGTLVTISS
# VL: AVMTQTPSSTSAAVEGTVTINCQASQSISNRLSWFQQKPGQPPKLLIYQASTLASGVPSRFKGSGSGTEFTLTISGVQREDAATYYCLGSYSSSDASFGGGTKLEIKR
# notes: Fc-silenced (L234A/L235A/P329G) IgG1, kappa; Alexa Fluor 647-labeled in single-step flow cytometry; Cluster C-45
# B4: HW-8 chimeric rabbit-human IgG1 LA/LA/PG (antibody, V domains shown)
# VH: QSLEESGGRLVTPGTPLTLTCTVSGFSLSSYAMSWVRQAPGKGLEWIGAISTGGSTTYASWAKGRFTISKTSSTTVDLKMTSLTTEDTATYFCVRHFRLWGPGTLVTISS
# VL: QVLTQTPSSVSAAVGGTVTIKCQASQSIGSALAWFQQKPGQRPKLLIYRASNLASGVPSRFKGSGSGTEFALTISGVQREDAATYYCLGGAAAVWAFGAGTNVEIKR
# notes: as for B3
# B5: HW-28 chimeric rabbit-human IgG1 LA/LA/PG (antibody, V domains shown)
# VH: QKQLVESGGRLVTPGTPLTLTCTASGFSLSSNAMSWVRQAPGEGLQWIGTISSGGSTYYASWAKGRFTISKTSTTVTLKMTSLTTEDTATYFCARGADLHRLWGPGTLVTVSS
# VL: B2 VL with A24G, D25K, T26P, R30S, Y31F, L46V, C99Y
# notes: as for B1
# B6: HW-45 chimeric rabbit-human IgG1 LA/LA/PG (antibody, V domains shown)
# VH: QKQLVESGGRLVTPGTPLTLTCTVSGFSLSSYAMGWFRQAPGKGLEWIGIINSYGSTYYASWAKGRFTISKTSTTVDLKITSPTTEDTATYFCGRRIGSARFDPWGPGTLVTVSS
# VL: B2 VL with R30S, S52R, Q98R, C99L
# notes: Fc-silenced (L234A/L235A/P329G) IgG1, lambda; Alexa Fluor 647-labeled in single-step flow cytometry; Prototype of cluster C-45
# Target: T5, PTP4A3 (PRL-3)
# T5 construct: coated protein in the ELISA; also called His-PTP4A3 (R&D Systems)
# Test: ELISA on coated His-PTP4A3
# Description: (§1) Recombinant purified ECDs (50-150 ng) of each putative target protein were coated, incubated with 150 ng of the indicated primary antibody, and binding was detected using a peroxidase-conjugated anti-human Fab secondary antibody. Heatmap represents averages of technical triplicates. (8B) Target validation via siRNA knockdown. H929 cells were transfected with siRNA pools targeting the putative antibody targets ICAM1, CADM1, and PTPRG. Cells were then subjected to cognate IgG binding analysis via flow cytometry. (NT, non-targeting siRNA).
# (§2) ELISA ELISA was conducted as described previously. Briefly, 50-150 ng of antigen was coated overnight in half-area 96-well plates at 4° C., blocked with 3% BSA at 37° C. for 1 h, and 150 ng of chimeric rabbit/human IgG1 was added, incubating for 2 h at 37° C. […] After incubating at 37° C. for 15 min-1 h (depending on intensity of controls), data were acquired using a SpectraMax M5 plate reader (Molecular Devices).
# T5 sequence (chain, as listed by the source limits assumed): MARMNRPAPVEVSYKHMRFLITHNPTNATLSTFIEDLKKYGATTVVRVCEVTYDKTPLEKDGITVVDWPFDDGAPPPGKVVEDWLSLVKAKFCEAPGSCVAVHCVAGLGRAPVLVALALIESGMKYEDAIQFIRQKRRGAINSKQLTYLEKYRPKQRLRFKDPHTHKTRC
row,Binder,binding result
1,B1,no binding (tested: 150 ng IgG1 per well)
2,B2,no binding (tested: 150 ng IgG1 per well)
3,B3,no binding (tested: 150 ng IgG1 per well)
4,B4,no binding (tested: 150 ng IgG1 per well)

# Target: T1, GARS, endogenous in H929 multiple …
# Test: flow cytometry, H929 + PTPRG siRNA; None 2.13; surface target GARS putative
row,Binder,Cells stained (%)
1,B1,100
2,B5,98.6
3,B6,97.3
4,B3,99.8
5,B4,84.3

# Target: T6, APP
# T6 construct: His-tagged; coated protein in the ELISA; also called APP-His (Acro Biosystems)
# Test: ELISA on coated APP-His, 150 ng IgG1; None 0.092
# Description: as §1, §2
row,Binder,ELISA Absorbance (405 nm-570 nm)
1,B1,0.081
2,B2,0.066
3,B5,0.144
4,B6,0.233
5,B3,0.112
6,B4,0.071

# Target: T2, ANXA1
# Test: ELISA on coated ANXA1-His, 150 ng IgG1; None 0.098
# Description: as §1, §2
row,Binder,ELISA Absorbance (405 nm-570 nm)
1,B1,0.065
2,B2,0.065
3,B5,0.153
4,B3,0.082
5,B4,0.077

# Target: T7, ICAM1-Fc (R&D Systems) (human, UniProt P05362 28-480)
# T7 construct: Bought; also called ICAM-1/CD54; not shown: Fc of the bought fusion protein
# Test: ELISA on coated ICAM1-Fc, 150 ng IgG1; None 0.060
# Description: as §1, §2
# T7 sequence (P05362 28-480): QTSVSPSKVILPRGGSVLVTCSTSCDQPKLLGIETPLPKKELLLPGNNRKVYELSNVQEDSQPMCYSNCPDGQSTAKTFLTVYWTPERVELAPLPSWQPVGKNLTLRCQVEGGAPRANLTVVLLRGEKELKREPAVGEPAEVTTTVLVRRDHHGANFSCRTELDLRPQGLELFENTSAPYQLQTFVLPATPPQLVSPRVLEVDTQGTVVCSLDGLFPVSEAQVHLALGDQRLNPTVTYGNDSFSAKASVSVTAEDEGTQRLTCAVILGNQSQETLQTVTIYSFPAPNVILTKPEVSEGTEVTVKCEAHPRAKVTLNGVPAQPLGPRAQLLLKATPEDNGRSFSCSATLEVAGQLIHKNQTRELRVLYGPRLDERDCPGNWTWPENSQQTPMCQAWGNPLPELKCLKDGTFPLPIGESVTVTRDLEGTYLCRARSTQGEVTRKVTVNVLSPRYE
row,Binder,ELISA Absorbance (405 nm-570 nm)
1,B1,0.051
2,B2,0.054
3,B5,0.085
4,B3,0.074
5,B4,0.067

# Target: T1, GARS, endogenous in H929 multiple …
# Test: flow cytometry, H929 + NT Green siRNA; None 416; surface target GARS putative
row,Binder,mAb binding (MFI)
1,B1,693000
2,B5,50700
3,B6,29500
4,B3,499000
5,B4,15500

# Target: T3, SELL (L-Selectin)
# Test: ELISA on coated SELL-Fc-His, 150 ng IgG1; None 0.096
# Description: as §1, §2
row,Binder,ELISA Absorbance (405 nm-570 nm)
1,B1,0.083
2,B2,0.067
3,B3,0.117
4,B4,0.074

# Target: T4, IGSF11 (VSIG3)
# Test: ELISA on coated IGSF11-Fc, 150 ng IgG1; None 0.090
# Description: as §1, §2
row,Binder,ELISA Absorbance (405 nm-570 nm)
1,B1,0.065
2,B2,0.07
3,B5,0.11
4,B3,0.076
5,B4,0.069

# Target: T7, ICAM1-Fc (R&D Systems)
# Test: ELISA on coated ICAM1-Fc
# Description: as §1, §2
row,Binder,binding result
1,B1,no binding (tested: 150 ng IgG1 per well)
2,B2,no binding (tested: 150 ng IgG1 per well)
3,B5,no binding (tested: 150 ng IgG1 per well)
4,B3,no binding (tested: 150 ng IgG1 per well)

# Target: T4, IGSF11 (VSIG3)
# Test: ELISA on coated IGSF11-Fc
# Description: as §1, §2
row,Binder,binding result
1,B1,no binding (tested: 150 ng IgG1 per well)
2,B2,no binding (tested: 150 ng IgG1 per well)
3,B3,no binding (tested: 150 ng IgG1 per well)
4,B4,no binding (tested: 150 ng IgG1 per well)
